Biological target: TAG72 on the surface of human tumor cells (LS174T, OVCAR3, OV90, OVCAR8-sTn, patient ascites OAS4 and OAS7) (human)
Experiment: cell-based or functional assay

B1: TAG72-BBζ CAR (hTag72scFv-IgG4(HL-CH3)-CD4tm-41BB-Zeta), expressed on human T cells (other)
chain: QVQLVQSGAEVVKPGASVKISCKASGYTFTDHAIHWVKQNPGQRLEWIGYFSPGNDDFKYNERFKGKATLTADTSASTAYVELSSLRSEDTAVYFCTRSLNMAYWGQGTLVTVSSGSTSGGGSGGGSGGGGSSDIVMSQSPDSLAVSLGERVTLNCKSSQSLLYSGNQKNYLAWYQQKPGQSPKLLIYWASARESGVPDRFSGSGSGTDFTLTISSVQAEDVAVYYCQQYYSYPLTFGAGTKLELKESKYGPPCPPCPGGGSSGGGSGGQPREPQVYTLPPSQEEMTKNQVSLTCLVKGFYPSDIAVEWESNGQPENNYKTTPPVLDSDGSFFLYSRLTVDKSRWQEGNVFSCSVMHEALHNHYTQKSLSLSLGKMALIVLGGVAGLLLFIGLGIFFKRGRKKLLYIFKQPFMRPVQTTQEEDGCSCRFPEEEEGGCELGGGRVKFSRSADAPAYQQGQNQLYNELNLGRREEYDVLDKRRGRDPEMGGKPRRKNPQEGLYNELQKDKMAEAYSEIGMKGERRRGKGHDGLYQGLSTATKDTYDALHMQALPPR
tumor killing relative to Mock, LS174T cells, 24 hours: 59%
tumor killing relative to Mock, LS174T cells, 72 hours: 77%
tumor killing relative to Mock, OV90 cells, 24 hours: 67%
tumor killing relative to Mock, OV90 cells, 72 hours: 97%
tumor killing relative to Mock, OVCAR3 cells, 24 hours: 79%
tumor killing relative to Mock, OVCAR3 cells, 72 hours: 90%
